Data from patent US20110177071A1 (PERSEID THERAPEUTICS, published 2011).

T1: full-length human CD86 on HEK293 cells (human, UniProt P42081 24-329)
T1 sequence: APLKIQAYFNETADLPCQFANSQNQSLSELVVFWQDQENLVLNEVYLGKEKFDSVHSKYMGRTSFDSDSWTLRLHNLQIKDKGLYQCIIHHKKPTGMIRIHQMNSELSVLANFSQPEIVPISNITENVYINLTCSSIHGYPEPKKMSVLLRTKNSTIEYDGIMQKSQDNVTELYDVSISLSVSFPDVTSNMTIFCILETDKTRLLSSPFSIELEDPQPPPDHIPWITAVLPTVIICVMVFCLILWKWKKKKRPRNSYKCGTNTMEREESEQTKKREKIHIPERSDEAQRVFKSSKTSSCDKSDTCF

T2: monomeric hCD86 ECD (papain-digested hCD86-mIg) (human, UniProt P42081 24-243)
T2 construct: also called monomeric hCD86-mIg ligand; monomeric CD86 ECD
T2 chain: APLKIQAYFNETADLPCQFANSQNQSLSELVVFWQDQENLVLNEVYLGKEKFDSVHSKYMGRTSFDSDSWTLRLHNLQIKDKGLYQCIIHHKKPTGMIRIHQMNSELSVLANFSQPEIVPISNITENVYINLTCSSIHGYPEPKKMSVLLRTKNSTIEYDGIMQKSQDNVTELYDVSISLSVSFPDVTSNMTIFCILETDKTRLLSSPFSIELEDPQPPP

T3: human CD80-murine Ig fusion protein (human)
T3 construct: Bought (Ancell #510-820); also called hCD80-mIg; human CD80-murine IgG
T3 chain: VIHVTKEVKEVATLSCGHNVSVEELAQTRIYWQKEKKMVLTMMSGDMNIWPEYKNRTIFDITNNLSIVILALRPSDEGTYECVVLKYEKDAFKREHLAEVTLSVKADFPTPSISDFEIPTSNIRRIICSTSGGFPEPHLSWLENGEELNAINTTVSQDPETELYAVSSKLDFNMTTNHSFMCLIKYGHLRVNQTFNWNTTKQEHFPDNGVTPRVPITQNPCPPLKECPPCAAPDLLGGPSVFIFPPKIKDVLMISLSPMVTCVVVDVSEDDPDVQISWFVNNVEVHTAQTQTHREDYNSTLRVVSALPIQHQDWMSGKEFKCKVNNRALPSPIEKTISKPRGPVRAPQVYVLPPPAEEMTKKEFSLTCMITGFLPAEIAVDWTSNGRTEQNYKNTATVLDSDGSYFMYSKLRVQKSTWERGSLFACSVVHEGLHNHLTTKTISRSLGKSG

T4: human CD86-murine Ig fusion protein (human)
T4 construct: Bought (Ancell #509-820); also called hCD86-mIg
T4 chain: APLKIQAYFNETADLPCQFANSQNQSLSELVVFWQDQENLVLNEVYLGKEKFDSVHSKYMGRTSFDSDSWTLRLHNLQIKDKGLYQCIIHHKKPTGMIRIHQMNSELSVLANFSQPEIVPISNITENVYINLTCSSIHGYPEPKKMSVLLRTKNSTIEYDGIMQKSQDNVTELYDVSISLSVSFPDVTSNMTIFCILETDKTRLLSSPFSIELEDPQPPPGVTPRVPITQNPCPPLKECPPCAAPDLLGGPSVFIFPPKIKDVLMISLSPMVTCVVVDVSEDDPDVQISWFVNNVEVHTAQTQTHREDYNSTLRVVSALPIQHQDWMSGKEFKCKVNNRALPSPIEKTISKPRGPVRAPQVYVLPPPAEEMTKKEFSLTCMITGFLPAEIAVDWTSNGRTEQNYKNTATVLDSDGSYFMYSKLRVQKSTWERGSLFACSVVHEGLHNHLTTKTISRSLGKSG


Key:
[1] = biological target: T1, full-length human CD86 on HEK293 cells; test: cell-based or functional assay
[2] = biological target: T2, monomeric hCD86 ECD (papain-digested …); test: SPR Biacore, fusion protein captured, monomeric hCD86 ECD in flow
Protocol: Regeneration between cycles was performed by 3 min incubation with 10 mM glycine buffer (pH 1.7) at 30 μl/min.
For kinetic analysis, data from monomeric binding assays were selected as described above except that association data selection began and ended 5 s from the injection start and stop times, and dissociation data selection started 5 s after the injection stop time, and typically included 1-60 s of the dissociation period. Such data were also analyzed for steady state equilibrium affinities using the BIAevaluation software. Steady state binding levels for each concentration (Responseeq (“Req”) values) were averaged over 5-20 s range near the end of the sample injection using the BIAevaluation “General fit: average” function.

[3] = biological target: T3, human CD80-murine Ig fusion protein; test: SPR Biacore, hCD80-mIg captured
[4] = biological target: T4, human CD86-murine Ig fusion protein; test: SPR Biacore, hCD86-mIg captured

| Mean IC50 (nM), CD4+ T cell proliferation [1] [nM] | Binding Affinity (Relative to LEA29Y-Ig) [2] [fold] | Kd [2] [nM] | Kd [3] [nM] | Binding Avidity (Relative to Orencia) [4] [fold] | Kd [4] [nM] | Binding Avidity (Relative to Orencia) [3] [fold] | Binder |
| --- | --- | --- | --- | --- | --- | --- | --- |
| 0.04 | > 5 | < 336 | 0.439 to 1.75 | > 40 | < 0.131 | – | D3-14-IgG2 (Fc fusion) MHVAQPAVVLASSRGIASFVCEYESPGKANEIRVTVLRQADSQVTEVCAMTYMKGDELTFLDDPSCTGTFSGNQVNLTIQGLRAADTGLYICKVELMYPPPYYLGIGNGTQIYVIDPEPCPDSDERKCCVECPPCPAPPVAGPSVFLFPPKPKDTLMISRTPEVTCVVVDVSHEDPEVQFNWYVDGVEVHNAKTKPREEQFNSTFRVVSVLTVVHQDWLNGKEYKCKVSNKGLPAPIEKTISKTKGQPREPQVYTLPPSREEMTKNQVSLTCLVKGFYPSDIAVEWESNGQPENNYKTTPPMLDSDGSFFLYSKLTVDKSRWQQGNVFSCSVMHEALHNHYTQKSLSLSPG |
| 0.03 | > 5 | < 336 | 0.439 to 1.75 | > 40 | < 0.131 | – | D3-17-IgG2 (Fc fusion) MHVAQPAVVLASSRGIASFVCEYESPGKANEIRVTVLRQADSQVTEVCAMTYMKGDELTFLDDPSCTGTFSGNQVNLTIQGLRAMDTGLYICKVELMYPPPYYLGIGNGTQIYVIDPEPCPDSDERKCCVECPPCPAPPVAGPSVFLFPPKPKDTLMISRTPEVTCVVVDVSHEDPEVQFNWYVDGVEVHNAKTKPREEQFNSTFRVVSVLTVVHQDWLNGKEYKCKVSNKGLPAPIEKTISKTKGQPREPQVYTLPPSREEMTKNQVSLTCLVKGFYPSDIAVEWESNGQPENNYKTTPPMLDSDGSFFLYSKLTVDKSRWQQGNVFSCSVMHEALHNHYTQKSLSLSPG |
| 0.04 | > 5 | < 336 | < 0.439 | > 40 | < 0.131 | > 2 | D3-12-IgG2 (Fc fusion) MHVAQPAVVLASSRGIASFVCEYESPGKANEIRVTVLRQAGSQVTEVCAMTYMKGDELTFLDDPSCTGTFSGNQVNLTIQGLRAADTGLYICKVELMYPPPYYLGIGNGTQIYVIDPEPCPDSDERKCCVECPPCPAPPVAGPSVFLFPPKPKDTLMISRTPEVTCVVVDVSHEDPEVQFNWYVDGVEVHNAKTKPREEQFNSTFRVVSVLTVVHQDWLNGKEYKCKVSNKGLPAPIEKTISKTKGQPREPQVYTLPPSREEMTKNQVSLTCLVKGFYPSDIAVEWESNGQPENNYKTTPPMLDSDGSFFLYSKLTVDKSRWQQGNVFSCSVMHEALHNHYTQKSLSLSPG |
| 0.03 | > 5 | < 336 | 0.439 to 1.75 | > 40 | < 0.131 | – | D3-11-IgG2 (Fc fusion) MHVAQPAVVLASSRGIASFVCEYESPGKANEIRVTVLRQAGSQVTEVCAMTYMKGDELTFLDDPSCTGTFSGNQVNLTIQGLRAMDTGLYICKVELMYPPPYYLGFGNGTQIYVIDPEPCPDSDERKCCVECPPCPAPPVAGPSVFLFPPKPKDTLMISRTPEVTCVVVDVSHEDPEVQFNWYVDGVEVHNAKTKPREEQFNSTFRVVSVLTVVHQDWLNGKEYKCKVSNKGLPAPIEKTISKTKGQPREPQVYTLPPSREEMTKNQVSLTCLVKGFYPSDIAVEWESNGQPENNYKTTPPMLDSDGSFFLYSKLTVDKSRWQQGNVFSCSVMHEALHNHYTQKSLSLSPG |
| 0.03 | > 5 | < 336 | 0.439 to 1.75 | > 40 | < 0.131 | – | D3-4-IgG2 (Fc fusion, also called D3-04-IgG2) MHVAQPAVVLASSRGIASFVCEYESPGKANEIRVTVLRQADSQVTEVCAMTYMKGDELTFLDDPSCTGTFSGNQVNLTIQGLRAADTGLYICKVELMYPPPYYLGFGNGTQIYVIDPEPCPDSDERKCCVECPPCPAPPVAGPSVFLFPPKPKDTLMISRTPEVTCVVVDVSHEDPEVQFNWYVDGVEVHNAKTKPREEQFNSTFRVVSVLTVVHQDWLNGKEYKCKVSNKGLPAPIEKTISKTKGQPREPQVYTLPPSREEMTKNQVSLTCLVKGFYPSDIAVEWESNGQPENNYKTTPPMLDSDGSFFLYSKLTVDKSRWQQGNVFSCSVMHEALHNHYTQKSLSLSPG |
| 0.03 | – | – | < 0.439 | > 40 | < 0.131 | > 2 | D3-75-IgG2 (Fc fusion) MHVAQPAVVLASSRGIASFVCEYESPGKANEVRVTVLRQADSQVTEVCAMTYMKENELTFLDDPSCTGTFSGNQVNLTIQGLRAMDTGLYICKVELMYPPPYYLGIGNGTQIYVIDPEPCPDSDERKCCVECPPCPAPPVAGPSVFLFPPKPKDTLMISRTPEVTCVVVDVSHEDPEVQFNWYVDGVEVHNAKTKPREEQFNSTFRVVSVLTVVHQDWLNGKEYKCKVSNKGLPAPIEKTISKTKGQPREPQVYTLPPSREEMTKNQVSLTCLVKGFYPSDIAVEWESNGQPENNYKTTPPMLDSDGSFFLYSKLTVDKSRWQQGNVFSCSVMHEALHNHYTQKSLSLSPG |
| 0.04 | > 5 | < 336 | 0.439 to 1.75 | > 40 | < 0.131 | – | D3-29-IgG2 (Fc fusion) MHVAQPAVVLASSRGIASFVCEYASPGKANEIRVTVLRQADSQVTEVCAMTYMKGDELTFLDDPSCTGTFSGNQVNLTIQGLRAMDTGLYICKVELMYPPPYYLGIGNGTQIYVIDPEPCPDSDERKCCVECPPCPAPPVAGPSVFLFPPKPKDTLMISRTPEVTCVVVDVSHEDPEVQFNWYVDGVEVHNAKTKPREEQFNSTFRVVSVLTVVHQDWLNGKEYKCKVSNKGLPAPIEKTISKTKGQPREPQVYTLPPSREEMTKNQVSLTCLVKGFYPSDIAVEWESNGQPENNYKTTPPMLDSDGSFFLYSKLTVDKSRWQQGNVFSCSVMHEALHNHYTQKSLSLSPG |
| 0.04 | – | 336 to 840 | 0.439 to 1.75 | – | 0.131 to 0.262 | – | D3-20-IgG2 (Fc fusion) MHVAQPAVVLASSRGIASFVCEYESPGKANEIRVTVLRQADSQVTEVCAMTYMKGNELTFLDDPSCTGTFSGNQVNLTIQGLRAMDTGLYICKVELMYPPPYYLGIGNGTQIYVIDPEPCPDSDERKCCVECPPCPAPPVAGPSVFLFPPKPKDTLMISRTPEVTCVVVDVSHEDPEVQFNWYVDGVEVHNAKTKPREEQFNSTFRVVSVLTVVHQDWLNGKEYKCKVSNKGLPAPIEKTISKTKGQPREPQVYTLPPSREEMTKNQVSLTCLVKGFYPSDIAVEWESNGQPENNYKTTPPMLDSDGSFFLYSKLTVDKSRWQQGNVFSCSVMHEALHNHYTQKSLSLSPG |
| 0.04 | – | 336 to 840 | 0.439 to 1.75 | – | 0.131 to 0.262 | – | D3-27-IgG2 (Fc fusion) MHVAQPAVVLASSRGIASFVCEYESPGKANEVRVTVLRQADSQVTEVCAMTYMKGNELTFLDDPSCTGTFSGNQVNLTIQGLRAMDTGLYICKVELMYPPPYYLGIGNGTQIYVIDPEPCPDSDERKCCVECPPCPAPPVAGPSVFLFPPKPKDTLMISRTPEVTCVVVDVSHEDPEVQFNWYVDGVEVHNAKTKPREEQFNSTFRVVSVLTVVHQDWLNGKEYKCKVSNKGLPAPIEKTISKTKGQPREPQVYTLPPSREEMTKNQVSLTCLVKGFYPSDIAVEWESNGQPENNYKTTPPMLDSDGSFFLYSKLTVDKSRWQQGNVFSCSVMHEALHNHYTQKSLSLSPG |
